What was measured:
[1] = molecular target: Extra Domain B of fibronectin (EDB) (UniProt P02751); test: BIACORE SPR, EDB immobilized on the chip, analyte at 1.56, 3.125 and 6.25 nM
[2] = molecular target: Extra Domain B of fibronectin (EDB) (UniProt P02751); test: SPR (BIACORE), EDB immobilized on the chip, construct as analyte

Sequence of L19 diabody-IL2 fusion protein, 12 amino acid linker (VH): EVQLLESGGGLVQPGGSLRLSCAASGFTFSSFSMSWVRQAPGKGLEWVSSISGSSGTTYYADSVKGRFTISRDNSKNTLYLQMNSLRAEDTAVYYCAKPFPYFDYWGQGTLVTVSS
Sequence of L19 diabody-IL2 fusion protein, 12 amino acid linker (chain): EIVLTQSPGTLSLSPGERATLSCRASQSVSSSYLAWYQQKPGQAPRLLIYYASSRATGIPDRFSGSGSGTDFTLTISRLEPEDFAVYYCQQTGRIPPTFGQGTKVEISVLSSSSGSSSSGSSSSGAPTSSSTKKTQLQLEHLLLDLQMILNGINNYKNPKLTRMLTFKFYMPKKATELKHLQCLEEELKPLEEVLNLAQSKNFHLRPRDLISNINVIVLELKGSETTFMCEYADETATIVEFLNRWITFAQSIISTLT
Sequence of Extra Domain B of fibronectin (EDB) (P02751 1266-1356 limits assumed): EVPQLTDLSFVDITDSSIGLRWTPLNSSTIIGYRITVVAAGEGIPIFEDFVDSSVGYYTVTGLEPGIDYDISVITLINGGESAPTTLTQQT

Kd [1]: 0.362 nM
koff [1]: 0.000769 s⁻¹
kon [1]: 2.13e+06 M⁻¹ s⁻¹
Kd [2]: 0.36 nM
Substance: L19 diabody-IL2 fusion protein, 12 amino acid linker
